# Data reported in US20090291088A1 (Biogen, published 2009).
# B1: M13-C06 Fab (Fab, V domains shown)
# VH: EVQLLESGGGLVQPGGSLRLSCAASGFTFSIYRMQWVRQAPGKGLEWVSGISPSGGTTWYADSVKGRFTISRDNSKNTLYLQMNSLRAEDTAVYYCARWSGGSGYAFDIWGQGTMVTVSS
# VL: DIQMTQSPLSLSASVGDRVTITCQASRDIRNYLNWYQQKPGKAPKLLIYDASSLQTGVPSRFGGSGSGTDFSFTIGSLQPEDIATYYCQQFDSLPHTFGQGTKLEIK
# notes: Human Fab from a phage library, kappa light chain
# What was measured:
# human IGF-1R(1-903)-Fc = target: T1, human IGF-1R(1-903)-Fc (human, UniProt P08069 31-933); experiment: SPR, Fab over captured hIGF-1R-Fc
# T1 construct: Made by Biogen Idec; Multimerises through IGF-1R and Fc; also called hIGF-1R-Fc; IGF-1R-Fc; not shown: C-terminal human IgG1-Fc tag
# Protocol: Experiments were performed on a Biacore 3000 set to 25° C. using HBS-EP (Biacore, Cat. No. BR-1001-88) as the running buffer. An anti-human IgG-Fc antibody (2C11 from Biogenesis, Cat. No. 5218-9850) was immobilized to saturation on a Biacore CM5 chip (Cat. No. BR-1000-14) surface by injection at 500 nM in HBS-EP buffer. mIGF-1R-Fc or hIGF-1R-Fc was captured on the chip surface by injecting 40 μL of 20 nM receptor at 3 μL/min. […] Dissociation of Fab was measured for ˜27 minutes. Fab was serially diluted from 25 to 0.4 nM to obtain concentration dependent kinetic binding curves. Regeneration of the surface chip between each injection series was performed using 3×10 μL injections of 100 mM glycine pH 2.0 at 60 μL/min. Each curve was double referenced using (1) data obtained from a CM5 chip surface devoid of the anti-IgG antibody 2C11 and (2) data from a primary injection of receptor followed by a secondary injection of HBS-EP buffer.
# [1] = target: T2, hIGF-1R-Fc mutant SD001 (Y28A) (human, UniProt P08069 31-933); experiment: SPR, M13-C06 Fab over captured mutant
# T2 construct: not shown: C-terminal human IgG1-Fc tag
# Protocol: (§1) After, completion of the receptor-Fc loading step, flow rates were elevated to 5 μl/min. […] At the end of each sensorgram, the flow rate was elevated to 30 μl/min and the chip surface was regenerated by 2×10 μL injections of 0.1 M glycine, pH 2.
# [2] = target: T3, hIGF-1R-Fc mutant SD002 (M156A) (human, UniProt P08069 31-933); experiment: SPR, M13-C06 Fab over captured mutant
# T3 construct: not shown: C-terminal human IgG1-Fc tag
# Protocol: as §1
# [3] = target: T4, hIGF-1R-Fc mutant SD003 (T188F) (human, UniProt P08069 31-933); experiment: SPR, M13-C06 Fab over captured mutant
# T4 construct: not shown: C-terminal human IgG1-Fc tag
# Protocol: as §1
# [4] = target: T5, hIGF-1R-Fc mutant SD004 (S210H_A211Q) (human, UniProt P08069 31-933); experiment: SPR, M13-C06 Fab over captured mutant
# T5 construct: not shown: C-terminal human IgG1-Fc tag
# Protocol: as §1
# [5] = target: T6, hIGF-1R-Fc mutant SD005 (A217T) (human, UniProt P08069 31-933); experiment: SPR, M13-C06 Fab over captured mutant
# T6 construct: not shown: C-terminal human IgG1-Fc tag
# Protocol: as §1
# [6] = target: T7, hIGF-1R-Fc mutant SD006 (A227K) (human, UniProt P08069 31-933); experiment: SPR, M13-C06 Fab over captured mutant
# T7 construct: also called SD0006; not shown: C-terminal human IgG1-Fc tag
# Protocol: as §1
# [7] = target: T8, hIGF-1R-Fc mutant SD007 (N237G) (human, UniProt P08069 31-933); experiment: SPR, M13-C06 Fab over captured mutant
# T8 construct: not shown: C-terminal human IgG1-Fc tag
# Protocol: as §1
# [8] = target: T9, hIGF-1R-Fc mutant SD008 (S257F) (human, UniProt P08069 31-933); experiment: SPR, M13-C06 Fab over captured mutant
# T9 construct: not shown: C-terminal human IgG1-Fc tag
# Protocol: as §1
# [9] = target: T10, hIGF-1R-Fc mutant SD009 (E264K) (human, UniProt P08069 31-933); experiment: SPR, M13-C06 Fab over captured mutant
# T10 construct: not shown: C-terminal human IgG1-Fc tag
# Protocol: as §1
# [10] = target: T11, hIGF-1R-Fc mutant SD010 (G271D) (human, UniProt P08069 31-933); experiment: SPR, M13-C06 Fab over captured mutant
# T11 construct: not shown: C-terminal human IgG1-Fc tag
# Protocol: as §1
# [11] = target: T12, hIGF-1R-Fc mutant SD011 (G285S_S286T) (human, UniProt P08069 31-933); experiment: SPR, M13-C06 Fab over captured mutant
# T12 construct: not shown: C-terminal human IgG1-Fc tag
# Protocol: as §1
# [12] = target: T13, hIGF-1R-Fc mutant SD012 (E303G) (human, UniProt P08069 31-933); experiment: SPR, M13-C06 Fab over captured mutant
# T13 construct: not shown: C-terminal human IgG1-Fc tag
# Protocol: as §1
# [13] = target: T14, hIGF-1R-Fc mutant SD013 (D405K) (human, UniProt P08069 31-933); experiment: SPR, M13-C06 Fab over captured mutant
# T14 construct: not shown: C-terminal human IgG1-Fc tag
# Protocol: as §1
# [14] = target: T15, hIGF-1R-Fc mutant SD014 (K412A_A413Q) (human, UniProt P08069 31-933); experiment: SPR, M13-C06 Fab over captured mutant
# T15 construct: not shown: C-terminal human IgG1-Fc tag
# Protocol: as §1
# [15] = target: T16, hIGF-1R-Fc mutant SD016 (D531Q_V532N) (human, UniProt P08069 31-933); experiment: SPR, M13-C06 Fab over captured mutant
# T16 construct: not shown: C-terminal human IgG1-Fc tag
# Protocol: as §1
# [16] = target: T17, hIGF-1R-Fc mutant SD017 (I650S) (human, UniProt P08069 31-933); experiment: SPR, M13-C06 Fab over captured mutant
# T17 construct: not shown: C-terminal human IgG1-Fc tag
# Protocol: as §1
# [17] = target: T18, hIGF-1R-Fc mutant SD018 (E665A) (human, UniProt P08069 31-933); experiment: SPR, M13-C06 Fab over captured mutant
# T18 construct: not shown: C-terminal human IgG1-Fc tag
# Protocol: as §1
# [18] = target: T19, hIGF-1R-Fc mutant SD019 (E739W, L741F) (human, UniProt P08069 31-933); experiment: SPR, M13-C06 Fab over captured mutant
# T19 construct: not shown: C-terminal human IgG1-Fc tag
# Protocol: as §1
# [19] = target: T20, IGF-1R (soluble, construct not stated) (human, UniProt P08069 31-932, limits assumed); experiment: Fab affinity for IGF-1R, method not given; Fab, not IgG; method and IGF-1R construct not stated
# T20 construct: whole entry named; also called Solube IGF-1R Protein; soluble recombinant human IGF-1R
binder,measurement,setting,value
B1,koff,human IGF-1R(1-903)-Fc,0.000833 s⁻¹
same,kon,human IGF-1R(1-903)-Fc,852000 M⁻¹ s⁻¹
same,Biacore Relative RUmax,[1],0.6
same,Biacore Relative RUmax,[2],1.2
same,Biacore Relative RUmax,[3],1
same,Biacore Relative RUmax,[4],0.8
same,Biacore Relative RUmax,[5],0.9
same,Biacore Relative RUmax,[6],1.7
same,Biacore Relative RUmax,[7],1.3
same,Biacore Relative RUmax,[8],1.5
same,Biacore Relative RUmax,[9],0.6
same,Biacore Relative RUmax,[10],0.8
same,Biacore Relative RUmax,[11],1.8
same,Biacore Relative RUmax,[12],0.3
same,Biacore Relative RUmax,[13],0.7
same,Biacore Relative RUmax,[14],0.6
same,Biacore Relative RUmax,[15],2
same,Biacore Relative RUmax,[16],2
same,Biacore Relative RUmax,[17],1.7
same,Biacore Relative RUmax,[18],1.9
same,Kd,[19],1.3 nM
